We go through 2 molecules from patent US11826422B2, “Methods and compositions for adaptive immune modulation” (THE BOARD OF REGENTS OF THE UNIVERSITY OF TEXAS SYSTEM, priority 2016, dated 2023).

For data set [1] the following is noted: cited from earlier work.
Data set [2] has as its system IgG1. In words: Serum total IgG1 by sandwich ELISA, OVA model. It counts as in vivo, mouse. As to conditions: FIG. 2; aerosol 6×, Groups 4 and 6; mean±SEM. How it is done:
(§1) Female BALB/c mice (6-10 weeks of age) were purchased from Charles River, Wilmington, Mass., and housed five mice per cage in a 12/12 h light/dark cycle with food and water available ad libitum. All experimental procedures were approved by the institutional animal ethics committee (IAUCUC) at the Institute of Biosciences and Technology, Texas A&M HSC.
(§2) Synthetic TLR ligands (referred to as O/P) were purchased from InvivoGen (San Diego, Calif.), reconstituted in endotoxin-free water, and suspended in 8 ml sterile PBS at the following concentrations: Pam2 10 μg/ml; ODN2395 20 μg/ml. Mice were sensitized to ovalbumin (OVA) ([…], Grade V, 2.25 mg alum in saline, pH7.4; Sigma, St. Louis, Mo.) administered by intraperitoneal (IP) injection once weekly for one or two weeks. Sensitized mice were exposed for 30 min to an aerosol of 2.5% (wt/vol) ovalbumin in 0.9% saline, via Aerotech II nebulizer (CIS US, Inc.) combined with or without O/P in the presence of room air supplemented with 5% CO2 to promote maximal ventilation and homogeneous aerosol exposure throughout the lungs.
(§3) Serum immunoglobulin concentrations were determined by standard sandwich ELISA technique using 96 well Easywash high binding flat bottom plates (Corning). […] Reactions were stopped by addition of 2N H2SO4 and absorbance read at 450 nm. All readings used in the data fell within the linear portion of the standard curves. […]
In general terms: ELISA stands for enzyme-linked immunosorbent assay.

The test system of data set [3] is eosinophils (EOS) in BAL. In words: BAL total and differential cell counts (Wright-Giemsa), OVA model. To be noted: FIG. 3B; sensitization optimization, Group 8: two IP OVA/alum, aerosol two times/week. The data set is classed as in vivo, mouse. As to the method:
as §2
BAL was obtained by instilling and withdrawing two, 1 ml aliquots of PBS via trachea cannula (luer stub adapter, BD Biosciences). Total leukocyte count was determined with a hemocytometer (Houser Scientific, Horsham, Pa.), and slides for differential cell count were prepared by cytospin of 300 μl of BAL fluid at 500×g for 5 min, followed by Wright-Giemsa staining.

The test system of data set [4] is OVA-specific IgE. In words: Serum OVA-specific IgE by sandwich ELISA, OVA sensitization and aerosol challenge mouse model. The data set is classed as in vivo. To be noted: mean±SEM. As to the method:
as §1, §2, §3

Data set [5] deals with total IgE. In words: Serum total IgE by sandwich ELISA, OVA sensitization and aerosol challenge mouse model. The data set is classed as in vivo. On the set-up: unit not given here. To be noted: mean±SEM. How it is done: as §1, §2
Serum immunoglobulin concentrations were determined by standard sandwich ELISA technique using 96 well Easywash high binding flat bottom plates (Corning). All reagents were diluted in assay diluent (TBS+0.1% BSA [Calbiochem]) except for the coating reagent, which was diluted in TBS only. All wells were washed with wash buffer (TBS+0.1% Tween-20) 3×s, 5 minutes per wash, and all samples developed by adding TMB Substrate Reagent (BD Biosciences) for 30 minutes in the dark. Reactions were stopped by addition of 2N H2SO4 and absorbance read at 450 nm. All readings used in the data fell within the linear portion of the standard curves.
The same protocol was followed for determining total IgE using the following amounts of reagents: 2 μg/mL goat anti-mouse IgE (AbD Serotec, STAR166), 2 μg/mL Biotin Rat Anti-Mouse IgE (BD Biosciences, clone R35-118). For OVA IgG1, the following amounts of reagents were used: 100 μg/mL OVA (Sigma) and 0.1 μg/mL Biotin Rat Anti-Mouse IgG1 (eBioscience, clone M1-14D12). For total IgG1: 2 μg/mL Rat Anti-Mouse IgG1 (BioLegend, clone RMG1-1), 0.05 μg/mL Biotin Rat Anti-Mouse IgG1 (eBioscience, clone M1-14D12). For IgG2a: 2 μg/mL Rat Anti-Mouse IgG2a (BioLegend, clone RMG2a-62) and 0.05 μg/mL Biotin Goat Anti-Mouse IgG2a (AbD Serotec, 108008). For total IgG: 2 μg/mL Goat Anti-Mouse IgG (AbD Serotec, 103001) and 0.025 μg/mL Biotin Sheep Anti-Mouse IgG (AbD Serotec, AAC10B).

For data set [6], the system named is IgG2a. In words: Serum IgG2a by sandwich ELISA, OVA model. The data set is classed as in vivo, mouse. To be noted: FIG. 2; aerosol 6×, Group 6; mean±SEM. How it is done:
as §1, §2, §3

As for `CCC(=O)O[C@]1(C(=O)SCF)[C@H](C)C[C@H]2[C@@H]3C[C@H](F)C4=CC(=O)C=C[C@]4(C)[C@@]3(F)[C@@H](O)C[C@@]21C` [Fluticasone propionate, S-(fluromethyl)6α,9-difluoro-11β-17-dihydroxy-16α-methyl-3-oxoandrosta-1,4-diene-17β-carbothioate,17-propionate], the “solubility in dimethyl sulfoxide and dimethylformamide” value in data set [1] (dimethyl sulfoxide, dimethylformamide) is recorded as “freely soluble”. Besides, in data set [1] (methanol, 95% ethanol), the “solubility in methanol and 95% ethanol” value was “slightly soluble”. The solubility in water result in data set [1] (water) was “practically insoluble”.

B1: ovalbumin (protein, UniProt P01012 2-386, looked up)
Ovalbumin: GSIGAASMEFCFDVFKELKVHHANENIFYCPIAIMSALAMVYLGAKDSTRTQINKVVRFDKLPGFGDSIEAQCGTSVNVHSSLRDILNQITKPNDVYSFSLASRLYAEERYPILPEYLQCVKELYRGGLEPINFQTAADQARELINSWVESQTNGIIRNVLQPSSVDSQTAMVLVNAIVFKGLWEKAFKDEDTQAMPFRVTEQESKPVQMMYQIGLFRVASMASEKMKILELPFASGTMSMLVLLPDEVSGLEQLESIINFEKLTEWTSSNVMEERKIKVYLPRMKMEEKYNLTSVLMAMGITDVFSSSANLSGISSAESLKISQAVHAAHAEINEAGREVVGSAEAGVDAASVSEEFRADHPFLFCIKHIATNAVLFFGRCVSP
notes: model antigen/allergen, Grade V, Sigma
Regarding B1, the IgG1 levels in data set [2] is reported as 6.01±0.66. For the same molecule, the “eosinophils (EOS) in BAL” value in data set [3] is recorded as “elevated compared to all other groups”. Moreover, the “OVA-specific IgE” value in data set [4] (FIG. 1C, serum, day 21, aerosol 6×, Groups 4 and 6) was determined as 4.36±0.82. The OVA-IgE in data set [4] (FIG. 6 second panel, aerosol schedule of FIG. 5A, Groups 2 and 3) worked out at 3.77±1.00. Further, the “total IgE” value in data set [5] (FIG. 1B, serum, day 21, aerosol 6× (three times/week for 2 weeks from second immunization), Groups 4 and 6) was 17.23±1.82; in data set [5] (FIG. 4, sensitization optimization, Group 5: one IP OVA/alum, OVA aerosol two times/week) it was 5.36±1.70; in data set [5] (FIG. 4, sensitization optimization, Group 8: two IP OVA/alum, OVA aerosol two times/week), 11.05±2.39; in data set [5] (FIG. 6 top panel, two OVA immunizations, aerosol schedule of FIG. 5A, Groups 2 and 3) it was 24.66±8.23. The molecule further had an IgG2a levels in data set [6] of 25±3.
